In patent publication US20150284465A1 (Chugai, published 2015):
Where a chain is given by its changes, count along the chain named.

T1: recombinant human IL-6R sR (R&D systems) (human, UniProt P08887 20-358)
T1 construct: Bought soluble receptor; also called rhIL-6sR; rhIL-s6R
T1 sequence (looked up): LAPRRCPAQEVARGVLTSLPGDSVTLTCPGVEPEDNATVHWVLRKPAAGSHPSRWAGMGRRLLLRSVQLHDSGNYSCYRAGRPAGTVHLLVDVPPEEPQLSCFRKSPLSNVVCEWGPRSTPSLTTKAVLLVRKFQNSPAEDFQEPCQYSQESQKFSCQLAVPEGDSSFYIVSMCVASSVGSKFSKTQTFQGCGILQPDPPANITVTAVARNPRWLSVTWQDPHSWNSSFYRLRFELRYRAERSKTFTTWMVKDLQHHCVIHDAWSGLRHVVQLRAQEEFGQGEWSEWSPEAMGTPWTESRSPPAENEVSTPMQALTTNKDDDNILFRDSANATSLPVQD

B1: RDC-5 (antibody, V domains shown)
VH: QVQLQESGPGLVRPSQTLSLTCTVSGYSITSDHAWSWVRQPPGRGLEWIGYISYSGITTYNPSLKSRVTMLRDTSKNQFSLRLSSVTAADTAVYYCARVLARITAMDYWGQGSLVTVSS
VL: DIQMTQSPSSLSASVGDRVTITCRASQDISSYLNWYQQKPGKAPKLLIYYTSRLHSGVPSRFSGSGSGTDFTFTISSLQPEDIATYYCQQGNTLPYTFGQGTKVEIK
notes: also called RDC-5H/L(WT)
B2: RD-28 (antibody, V domains shown)
VH: B1 VH with V99S, I103T
VL: B1 VL with Q89G
B3: RDC-2 (antibody, V domains shown)
VH: B1 VH with I103A
VL: B1 VL
notes: also called RDC-2H/L(WT)
B4: RDC-3 (antibody, V domains shown)
VH: B1 VH with V99I, I103A
VL: B1 VL
notes: also called RDC-3H/L(WT)
B5: RDC-4 (antibody, V domains shown)
VH: B1 VH with V99T, I103A
VL: B1 VL
notes: also called RDC-4H/L(WT)
B6: RDC-6 (antibody, V domains shown)
VH: B1 VH with V99I
VL: B1 VL
notes: also called RDC-6H/L(WT)
B7: RDC-7 (antibody, V domains shown)
VH: B1 VH with V99T
VL: B1 VL
notes: also called RDC-7H/L(WT)
B8: RDC-8 (antibody, V domains shown)
VH: B1 VH with V99L
VL: B1 VL
notes: also called RDC-8H/L(WT)
B9: RDC-11 (antibody, V domains shown)
VH: B1 VH with V99S, I103T
VL: B1 VL with Q89G, T93R
notes: also called H(WT)/RDC-11L

Biological target: T1, recombinant human IL-6R sR (R&D systems)
Assay: SPR (Biacore T100), antibody captured on Protein A, rhIL-6sR as analyte, 25 C
Experimental: The antigen-antibody interaction was measured by immobilizing 4,400 to 5,000 RU of rec-Protein A (Zymed) immobilized onto a sensor chip by the amine coupling method, binding various antibodies onto the chip, and then flowing the antigen over the chip as an analyte. For the antigen, various concentrations of rhIL-6sR were used. All measurements were carried out at 25° C. The kinetic parameters, association rate constant kₐ (1/Ms) and dissociation rate constant kd (1/s) were calculated from the sensorgrams obtained by measurement. Then, KD (M) was determined based on the rate constants. The respective parameters were determined using Biacore T100 Evaluation Software (Biacore).

Row | Binder | Kd [nM] | koff [s⁻¹] | kon [M⁻¹ s⁻¹]
1 | B1 | 0.022 | 2.8e-05 | 1.2e+06
2 | B2 | 0.12 | 0.00011 | 940000
3 | B3 | 0.022 | 2.5e-05 | 1.1e+06
4 | B4 | 0.037 | 3.7e-05 | 1e+06
5 | B5 | 0.027 | 2.9e-05 | 1.1e+06
6 | B6 | 0.029 | 3.5e-05 | 1.2e+06
7 | B7 | 0.038 | 4.2e-05 | 1.1e+06
8 | B8 | 0.025 | 3.6e-05 | 1.4e+06
9 | B9 | 0.065 | 7e-05 | 1.1e+06
